Source: patent US20080108546A1 (VLAAMS INTERUNIVERSITAIR INSTITUUT, published 2008)

Target: T1, E-epitope tagged human RIP2 (human, UniProt O43353 1-540)
T1 construct: ORF cloned in pCAGGS-E, expressed in 293T cells; also called E-RIP2
Test: co-immunoprecipitation from 293T lysates, anti-Flag IP, anti-E immunoblot
Description: FIG. 4: Interactions of INCA with other CARD-containing proteins. Co-immunoprecipitation assays were performed using lysates from 293T cells that have been transiently transfected with plasmids encoding various epitope-tagged proteins as indicated, including Flag-INCA, E-INCA, E-procaspase-1, E-COP, E-ICEBERG, E-RIP2 and E-procaspase-2 CARD. Immunoprecipitates were prepared using anti-Flag antibody adsorbed to protein G-sepharose and analyzed by SDS-PAGE/immunoblotting using anti-E epitope tag antibody and chemoluminescence-based detection. Aliquots of the same lysates were also analyzed directly by SDS-PAGE/immunoblotting as indicated. IP, immunoprecipitation; WB: Western blotting.
293T is a human embryonal kidney carcinoma cell line. 293T cells were routinely transfected using the calcium phosphate precipitation method (O'Mahoney and Adams, 1994). Cells were seeded the day before transfection at 2×10⁵ cells/6-well. Cells were transfected for 4 h, washed and incubated for another 24 h before lysates were prepared by harvesting the cells and lysing them in ice-cold NP-40 lysis buffer (10 mM HEPES pH 7.4, 142.5 mM KCl, 0.2% NP-40, 5 mM EGTA), supplemented with 1 mM DTT, 12.5 mM β-glycerophosphate, 1 mM Na₃VO₄, 1 mM PMSF, and 1× protease inhibitor mix (Roche, Basel, Switzerland). […] Alternatively, lysates were analyzed directly by immunoblotting after normalization for total protein content. […]

T1 sequence (O43353 whole entry): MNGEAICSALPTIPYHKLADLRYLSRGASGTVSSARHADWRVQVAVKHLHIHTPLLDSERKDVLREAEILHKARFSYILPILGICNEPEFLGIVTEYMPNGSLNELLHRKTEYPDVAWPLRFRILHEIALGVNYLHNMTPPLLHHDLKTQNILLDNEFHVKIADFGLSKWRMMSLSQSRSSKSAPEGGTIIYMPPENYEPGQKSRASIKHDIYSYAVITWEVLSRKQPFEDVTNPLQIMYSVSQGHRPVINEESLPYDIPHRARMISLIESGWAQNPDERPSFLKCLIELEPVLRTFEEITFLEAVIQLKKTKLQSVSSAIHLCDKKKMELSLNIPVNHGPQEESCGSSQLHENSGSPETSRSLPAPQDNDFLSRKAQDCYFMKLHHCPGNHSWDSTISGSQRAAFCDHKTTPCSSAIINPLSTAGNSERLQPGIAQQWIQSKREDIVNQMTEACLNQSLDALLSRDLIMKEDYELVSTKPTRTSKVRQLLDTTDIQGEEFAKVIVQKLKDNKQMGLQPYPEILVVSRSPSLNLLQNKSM

B1: Flag-tagged INCA (Inhibitory CARD) (other, not shown: small tags and cut ends)
chain: MADKVLKEKRKQFIRSVGEGTINGLLGELLETRVLSQEEIEIVKCENATVMDKARALLDSVIRKGAPACQICITYICEEDSHLAGTLGLSAGPTSGNHLTTQDSQIVLPS
notes: Expressed in 293T cells (pCAGGS-Flag) for co-immunoprecipitation; Flag-tagged INCA also expressed stably in THP-1 cells from a retroviral vector; also called Flag-INCA
B1: no binding.
